One block for each molecule: values may come before it.
Key:
[1] = target: T1, β-xylosidase BxTW1 (rBxTW1) (Talaromyces amestolkiae, UniProt A0A0H3W535); assay: competitive product inhibition of pNPX hydrolysis by purified enzyme; format: biochemical
T1 construct: mature BxTW1 without its signal peptide, expressed in Pichia pastoris GS115
T1 sequence (A0A0H3W535 22-797): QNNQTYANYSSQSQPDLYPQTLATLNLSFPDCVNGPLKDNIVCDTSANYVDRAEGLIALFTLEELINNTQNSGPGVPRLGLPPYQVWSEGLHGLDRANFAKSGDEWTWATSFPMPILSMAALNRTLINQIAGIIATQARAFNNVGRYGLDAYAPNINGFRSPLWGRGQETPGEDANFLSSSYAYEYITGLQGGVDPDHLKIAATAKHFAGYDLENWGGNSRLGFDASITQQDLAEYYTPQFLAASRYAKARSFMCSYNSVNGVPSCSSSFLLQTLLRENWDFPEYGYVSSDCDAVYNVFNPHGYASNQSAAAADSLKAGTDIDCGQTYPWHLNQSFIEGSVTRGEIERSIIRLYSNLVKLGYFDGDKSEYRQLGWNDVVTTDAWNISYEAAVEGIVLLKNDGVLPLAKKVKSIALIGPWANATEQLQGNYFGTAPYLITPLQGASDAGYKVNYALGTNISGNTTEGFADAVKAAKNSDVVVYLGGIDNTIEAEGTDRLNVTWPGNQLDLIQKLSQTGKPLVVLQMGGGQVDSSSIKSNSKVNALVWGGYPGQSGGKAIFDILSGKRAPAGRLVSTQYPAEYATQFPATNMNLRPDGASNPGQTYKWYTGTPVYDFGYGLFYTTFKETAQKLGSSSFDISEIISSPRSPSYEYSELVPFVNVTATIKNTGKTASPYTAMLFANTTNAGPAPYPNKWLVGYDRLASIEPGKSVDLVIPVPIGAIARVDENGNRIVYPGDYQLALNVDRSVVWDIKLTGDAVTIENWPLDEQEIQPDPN

[2] = target: recombinant β-xylosidase BxTW1 from Talaromyces amestolkiae (Talaromyces amestolkiae); assay: SEC; Superose 12 HR 10/30 column, molecular mass in native conditions, performed as described previously [20]
[3] = substrate: O=[N+]([O-])c1ccc(O[C@@H]2OC[C@@H](O)[C@H](O)[C@H]2O)cc1; assay: Michaelis-Menten kinetics of purified enzyme (Km); format: biochemical, Talaromyces amestolkiae
[4] = substrate: O=[N+]([O-])c1ccc(O[C@@H]2OC[C@H](O)[C@H](O)[C@H]2O)cc1; assay: Michaelis-Menten kinetics of purified enzyme (Km); format: biochemical, Talaromyces amestolkiae
[5] = substrate: O=[N+]([O-])c1ccc(O[C@@H]2O[C@@H](CO)[C@H](O)[C@H]2O)cc1; assay: Michaelis-Menten kinetics of purified enzyme (Km); format: biochemical, Talaromyces amestolkiae
[6] = substrate: OC1OC[C@@H](O[C@@H]2OC[C@@H](O)[C@H](O)[C@H]2O)[C@H](O)[C@H]1O; assay: Michaelis-Menten kinetics of purified enzyme (Km); format: biochemical, Talaromyces amestolkiae
[7] = substrate: OC1OC[C@@H](O[C@@H]2OC[C@@H](O[C@@H]3OC[C@@H](O)[C@H](O)[C@H]3O)[C@H](O)[C@H]2O)[C@H](O)[C@H]1O; assay: Michaelis-Menten kinetics of purified enzyme (Km); format: biochemical, Talaromyces amestolkiae
[8] = substrate: OC1OC[C@@H](O[C@@H]2OC[C@@H](O[C@@H]3OC[C@@H](O[C@@H]4OC[C@@H](O)[C@H](O)[C@H]4O)[C@H](O)[C@H]3O)[C@H](O)[C@H]2O)[C@H](O)[C@H]1O; assay: Michaelis-Menten kinetics of purified enzyme (Km); format: biochemical, Talaromyces amestolkiae
[9] = substrate: OC1OC[C@@H](O[C@@H]2OC[C@@H](O[C@@H]3OC[C@@H](O[C@@H]4OC[C@@H](O[C@@H]5OC[C@@H](O)[C@H](O)[C@H]5O)[C@H](O)[C@H]4O)[C@H](O)[C@H]3O)[C@H](O)[C@H]2O)[C@H](O)[C@H]1O; assay: Michaelis-Menten kinetics of purified enzyme (Km); format: biochemical, Talaromyces amestolkiae
[10] = substrate: OC1OC[C@@H](O[C@@H]2OC[C@@H](O[C@@H]3OC[C@@H](O[C@@H]4OC[C@@H](O[C@@H]5OC[C@@H](O[C@@H]6OC[C@@H](O)[C@H](O)[C@H]6O)[C@H](O)[C@H]5O)[C@H](O)[C@H]4O)[C@H](O)[C@H]3O)[C@H](O)[C@H]2O)[C@H](O)[C@H]1O; assay: Michaelis-Menten kinetics of purified enzyme (Km); format: biochemical, Talaromyces amestolkiae

Ki [1]: 1.7 ± 0.3 mM
Molecule: OC1OC[C@@H](O)[C@H](O)[C@H]1O (stereo partly shown) [xylose]

stoichiometry N [2]: 2
Molecule: recombinant β-xylosidase BxTW1 from Talaromyces amestolkiae (enzyme)

B1: β-xylosidase BxTW1 (rBxTW1) (Talaromyces amestolkiae) (protein)
chain: T1 sequence (A0A0H3W535 22-797)
notes: mature BxTW1 without its signal peptide, expressed in Pichia pastoris GS115
Km [3]: 200 ± 10 µM
Vmax [3]: 20.8 µmol/min/mg
kcat [3]: 69.3 s⁻¹
kcat/Km [3]: 336000 M⁻¹ s⁻¹
Km [4]: 1600 ± 100 µM
Vmax [4]: 8.3 µmol/min/mg
kcat [4]: 28 s⁻¹
kcat/Km [4]: 17000 M⁻¹ s⁻¹
Km [5]: 4300 ± 300 µM
Vmax [5]: 14.9 µmol/min/mg
kcat [5]: 49.8 s⁻¹
kcat/Km [5]: 12000 M⁻¹ s⁻¹
Km [6]: 510 ± 30 µM
Vmax [6]: 26.4 µmol/min/mg
kcat [6]: 87.9 s⁻¹
kcat/Km [6]: 170000 M⁻¹ s⁻¹
Km [7]: 190 ± 10 µM
Vmax [7]: 9 µmol/min/mg
kcat [7]: 30 s⁻¹
kcat/Km [7]: 160000 M⁻¹ s⁻¹
Km [8]: 200 ± 10 µM
Vmax [8]: 6.34 µmol/min/mg
kcat [8]: 21.1 s⁻¹
kcat/Km [8]: 100000 M⁻¹ s⁻¹
Km [9]: 220 ± 10 µM
Vmax [9]: 4.48 µmol/min/mg
kcat [9]: 14.9 s⁻¹
kcat/Km [9]: 68000 M⁻¹ s⁻¹
Km [10]: 210 ± 20 µM
Vmax [10]: 4.27 µmol/min/mg
kcat [10]: 14.2 s⁻¹
kcat/Km [10]: 69000 M⁻¹ s⁻¹

Reference: paper PMC5050587, “Enzymatic fine-tuning for 2-(6-hydroxynaphthyl) β-D-xylopyranoside synthesis catalyzed by the recombinant β-xylosidase BxTW1 from Talaromyces amestolkiae” (Microbial Cell Factories, 2016)
